Laboratory results taken from article PMC7439463.
One block for each substance: values may come before it.

Experiments:
[1] = biological target: tag-free BcsRQ complex (E. coli 1094) (UniProt P37655); assay: SEC-MALS; purified tag-free BcsERQ^FL complex on Superose 6 Increase 10/300 GL, with Cymal-6 detergent
[2] = biological target: BcsQ (tag-free) (E. coli 1094) (UniProt P37655); assay: SEC-MALS; purified sample on Superdex 200 Increase 10/300 GL in its gel filtration buffer (20 mM HEPES pH 8.0, 120 mM NaCl, 2 mM DTT for BcsRQ), 0.5 ml/min
[3] = biological target: BcsE^217-523 (purified, tag-free) (E. coli 1094) (UniProt P37657); assay: ITC; apparent constants; Microcal VP-ITC, 20 C; tag-free BcsRQ (180 uM, syringe) titrated into BcsE^217-523 (18 uM, cuvette); 20 mM HEPES pH 8.0, 100 mM NaCl, 2 mM DTT; single-site binding model

stoichiometry N (BcsE:BcsR:BcsQ, printed as 2:2:2) [1]: 1
Substance: BcsE^FL (tag-free) (from UniProt P37657 1-523) (natural protein)

stoichiometry N (BcsR:BcsQ, printed as 2:2) [2]: 1
Substance: BcsR (His tag cleaved, in tag-free BcsRQ) (natural protein)

Kd [3]: 16 nM
stoichiometry N [3]: 0.95
Substance: tag-free BcsRQ complex (from UniProt P37655 1-242)
